Experimental data published in the DeepSol protein solubility set.

Assay: soluble on expression in E. coli; label from the status in PepcDB or PDB records

Sequence	soluble on expression in E. coli
MRVEDVMVTDVDTIDITASLEDVLRNYVENAKGSSVVVKEGVRVGIVTTWDVLEAIAEGDDLAEVKVWEVMERDLVTISPRATIKEAAEKMVKNVVWRLLVEEDDEIIGVISATDILRAKMAKRY	soluble
MGHHHHHHSHMETIGAKALEDFADNIKNDPDKEYNMPKDGTVHELTSNAILFLQQLLDFQETAGAMLASQETSSSATSYSSEFSKRLLSTYICKVLGNLQLNLLSKSKVYEDPALSAIFLHNNYNYILKSLEKSELIQLVAVTQKTAERSYREHIEQQIQTYQRSWLKVTDYIAEKNLPVFQPGVKLRDKERQIIKERFKGFNDGLEELCKIQKAWAIPDTEQRDRIRQAQKTIVKETYGAFLQKFGSVPFTKNPEKYIKYGVEQVGDMIDRLFDTSA	not soluble
MTTGGEDSRRTLSPGTMIVIVGPSGAGKDTLMDYAAAQLSGRPGFHFTRRVITRSCDAGGENHDAVSMHEFNQLEDAGAFAVSWQAHGLKYGIPAAVYRHLEAGDVVIANGSRSALPHFGTAFSRLKVVNIVARPDVLARRLEQRGRESRDDILRRLERSSLAVAGDFDVTTVDNSGAIEDAGKTIMQVLQQSAGSSQP	not soluble
MLIYISLIMKMERLSMVILELYQNDYSKDLVAFDSIEDGKAFVAQIPGYTLETEDGFEVEYFNPKNIPDYMEIIFNGNIVPLSKFMFDPEENVNIIWKEISNLSLKNDRVIEGYSKIDAYVVNNHEVKAYVETRETNYRKAKDFLESRGYEIDRSFFGSEDGEAILYRKKGIEVWHFLCHLDPMFVEIEDVEGYVKEEVGEIQ	not soluble
MSLENKHVTIYDIAERLNLATSTISRALKDHHTISDKTIKKVKKTAEEMGFVPNTLAAGLRGNKTRTIGVLIPTVTQPFLSSLISGIEITAQKSDYTVIIMQSHDSYEEEVNMAKSLYSNRVSGVICSLAMETRDTAHFHQFSNNNIPLVFVDRVPKDYNTFRVVIDNYTAGYKATKHLIEQGCIRIAHLTAGSELGNLYNERKRGYIEALKDHNIEVEEELIINLNSVTYEDGVKASNALFDLKPIPDGLFAPGDILAVSAVQTAKKRGTKVPEEFKVIGFNNDPISQIIDPNLSTITHPAEKMGKAAAEIIIKNLKSSKNDDAKEITFLNTEVLARESSSKEGHHHHHH	soluble
QMEEGFVCFKLLYDVKKNRISIDDAVAENGVLPLMKHISWQFDKLPHMLIAGGTGGGKTYFMLTIIKACVGLGADVRILDPKNADLADLEEVLPKKVYSQKNGILMCLRKSVDGMMERMDEMKQMSNYKTGENYAYLGLKPVFIFFDEYVAFMDLLDMKERNEALSYMKQLVMLGRQAGYFLVLGAQRPDA	not soluble
SLPLPLVVAVLDSEDEKEGRTCAIVAFGFRYIHPASGAQVDVPEGYVTDFASIPAPVRGLFPPFGRHAKAAVLHDWLYLIGEPGQRAFADRIFLDAMDDLRVSLVRRSIMHRAVRLAGGGAYAKEASTWARAFGNWRTGDRHTPPFTAESRYQAHWPVPPRPDFRP	not soluble
SAEEPEPDLGVAEGSEDQALEMPSWKAPEDIDPQPGSYEIRHYGPAKWVSTCVESLDWDSAIQTGFTKLNGYIQGKNEKEMKIKLTAPVTSYVEPGSSPFSLLMDSPVAKRIKNNF	soluble
IIGGQKAKMGNFPWQVFTNIHGRGGGALLGDRWILTAAHTLYPKEHEAQSNASLDVFLGHTNVEELMKLGNHPIRRVSVHPDYRQDESYNFEGDIALLELENSVTLGPNLLPICLPDNDTFYDLGLMGYVSGFGVMEEKIAHDLRFVRLPVANPQACENWLRGKNRMDVFSQNMFCAGHPSLKQDACQGDSGGVFAVRDPNTDRWVATGIVSWGIGCSRGYGFYTKVLNYVDWIKKEMEEED	soluble
MAHHHHHHMELEEFWLTDGSISDWGEVKKFCGFANTLRTIYVERNPIEQDKRYRDKVYMNLPFVTQIDSWPVVNKDNLEGDRLIQRRAS	soluble
MSLAFHEGLAAHLATGVTTTCHAWAIDRADGVVMGFTDHDRGLVFEGIDFRADSGLSALALQRGTGLAVDNSEAIGALTDAAIREADIDAGRFDGAGVRAWLVNWTDVAQRQLMFRGTIGEIRRAGGAFTAELRGLTEALNQPRGRVYQTPCGAVLGDAACGVDLGAPGYAAEAEVLGVEEGQRLVLPGLPDFEAGWFARGRLVVLDGAAEGLSGVVKRDVIAEGARHVDLWQALRAPLSVGDRIRIEAGCDKRMETCRYKFNNLLNYQGFPDIPGEDWMTVMPAQSGATGGGSRREGHHHHHH	soluble
